Publication doi:10.1101/2020.12.31.424729 (bioRxiv, 2020)

Molecular target: SARS-CoV-2 Spike ectodomain trimer stabilized with 2 proline mutations (S-2P) (SARS-CoV-2, Wuhan-Hu-1, stabilised)
Experiment: cryo-EM structure

Binder | stoichiometry N [Fabs per S-2P trimer]
DH1047 Fab (Fab, V domains shown) VH: QVQLVQSGAEVKKPGASVQVSCQASANTFTNHYIHWVRQAPGQGLEWMGIIYPTGGNTIYAQGFQGRVTMTRDTSLNTIYLELSSLRSEDTAVYYCARDVRVDDSWSGYDLLSGGTYFDYWGQGTLVTVSS VL: not shown | 3
DH1041 Fab (Fab, V domains shown) VH: EVQLVESGGGLVQPGGSLRLSCAASGVTFSSYWMSWVRQAPGKGLEWVANIRQDGSEKYSVDSVKGRFTISRDNAKNSLYLQMNSLRAEDTAVYYCARARRADNSGYYGFHFDCWGQGTLVTVSS VL: QSVLTQPPSVSGAPGQRVTISCTGSSSNIGAGYDVHWYQQLPGTAPKLLIYGNNNRPSGVPDRFSDSKSGTSASLAITRLQAEDEADYYCQSYDSSLSGWVFGGGTKLTVL | 3
